Measured values: the supplement of paper PMC9112550, “Optimization of the antimicrobial peptide Bac7 by deep mutational scanning” (BMC Biology, 2022)

The sequences below were run on Escherichia coli TOP10 (assay: shrunken log2 fold change of peptide-encoding DNA abundance (4.5 h post-induction vs induction); higher = less antimicrobial activity (less host growth inhibition)). Conditions: time post-induction: 4.5 h; library: site-saturation at positions 5, 18, 19, 20.
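Also: peptides expressed intracellularly from a pBAD plasmid library in pooled LB shake-flask culture, induced with 0.3% L-arabinose, DNA abundance read by NGS, three biological replicates, DESeq2 with apeglm shrinkage.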

RRIRTRPPRLPRPRPRPFFQPRP and RRIRVRPPRLPRPRPRPKEVPRP are within 0.2 log units of each other in “shrunken log2 fold change” value: 0.0474 for the first, 0.177 for the second.

First: RRIRCRPPRLPRPRPRPYAPPRP
Second: RRIRCRPPRLPRPRPRPSCWPRP
The “shrunken log2 fold change” value of the first is lower: -0.412 for the first, 0.2 for the second.

RRIRHRPPRLPRPRPRPWPDPRP and RRIRHRPPRLPRPRPRPTPNPRP are within 0.2 log units of each other in “shrunken log2 fold change” value: -0.0062 for the first, -0.00791 for the second.

Compared with RRIRARPPRLPRPRPRPNVGPRP, RRIRPRPPRLPRPRPRPSDCPRP is lower in “shrunken log2 fold change” value: 0.251 for the first, -0.0743 for the second.

Compared with RRIRQRPPRLPRPRPRPAFKPRP, RRIRYRPPRLPRPRPRPRDNPRP is lower in “shrunken log2 fold change” value: -0.015 for the first, -0.712 for the second.

Compared with RRIRMRPPRLPRPRPRPMFFPRP, RRIRARPPRLPRPRPRPGDDPRP is higher in “shrunken log2 fold change” value: -0.0106 for the first, 0.846 for the second.

Going from RRIRTRPPRLPRPRPRPERVPRP to RRIRFRPPRLPRPRPRPCYSPRP, the “shrunken log2 fold change” value falls from 0.296 to 0.019.

RRIRQRPPRLPRPRPRPFCNPRP and RRIRHRPPRLPRPRPRPVSDPRP are within 0.2 log units of each other in “shrunken log2 fold change” value: 0.0828 for the first, 0.132 for the second.

RRIRTRPPRLPRPRPRPEIVPRP and RRIRIRPPRLPRPRPRPRSLPRP are within 0.2 log units of each other in “shrunken log2 fold change” value: 0.00632 for the first, -0.036 for the second.

RRIRRRPPRLPRPRPRPEKMPRP and RRIRPRPPRLPRPRPRPAVMPRP are within 0.2 log units of each other in “shrunken log2 fold change” value: 0.296 for the first, 0.215 for the second.

RRIRARPPRLPRPRPRPWRNPRP and RRIRIRPPRLPRPRPRPVVPPRP are within 0.2 log units of each other in “shrunken log2 fold change” value: -0.0929 for the first, -0.215 for the second.

RRIRIRPPRLPRPRPRPEDLPRP and RRIRKRPPRLPRPRPRPCGKPRP are within 0.2 log units of each other in “shrunken log2 fold change” value: -0.00555 for the first, 0.00875 for the second.

First: RRIRVRPPRLPRPRPRPRVMPRP
Second: RRIRGRPPRLPRPRPRPSAYPRP
The “shrunken log2 fold change” value of the first is lower: 0.188 for the first, 1.07 for the second.

RRIRGRPPRLPRPRPRPNPAPRP and RRIRPRPPRLPRPRPRPEKSPRP are within 0.2 log units of each other in “shrunken log2 fold change” value: 0.231 for the first, 0.264 for the second.

First: RRIRPRPPRLPRPRPRPFNDPRP
Second: RRIRARPPRLPRPRPRPWKLPRP
The “shrunken log2 fold change” value of the first is higher: 0.0502 for the first, -0.36 for the second.

RRIRGRPPRLPRPRPRPIKPPRP and RRIRQRPPRLPRPRPRPACCPRP are within 0.2 log units of each other in “shrunken log2 fold change” value: -0.0362 for the first, 0.162 for the second.

Going from RRIRTRPPRLPRPRPRPGSTPRP to RRIRFRPPRLPRPRPRPAELPRP, the “shrunken log2 fold change” value falls from 0.857 to 0.281.

Going from RRIRQRPPRLPRPRPRPGQNPRP to RRIRARPPRLPRPRPRPSLRPRP, the “shrunken log2 fold change” value rises from -0.223 to 0.109.

RRIRWRPPRLPRPRPRPAVWPRP and RRIRVRPPRLPRPRPRPTAWPRP are within 0.2 log units of each other in “shrunken log2 fold change” value: 0.32 for the first, 0.145 for the second.

Compared with RRIRHRPPRLPRPRPRPKIMPRP, RRIRRRPPRLPRPRPRPLNKPRP is higher in “shrunken log2 fold change” value: -0.811 for the first, 0.0514 for the second.

Going from RRIRLRPPRLPRPRPRPGCTPRP to RRIRYRPPRLPRPRPRPTLAPRP, the “shrunken log2 fold change” value rises from -0.151 to 0.239.

First: RRIRDRPPRLPRPRPRPVWYPRP
Second: RRIRGRPPRLPRPRPRPIYRPRP
The “shrunken log2 fold change” value of the first is lower: -0.134 for the first, 0.2 for the second.

Going from RRIRCRPPRLPRPRPRPCSEPRP to RRIRKRPPRLPRPRPRPAYEPRP, the “shrunken log2 fold change” value rises from -0.495 to 0.0198.

Compared with RRIRDRPPRLPRPRPRPTWVPRP, RRIRCRPPRLPRPRPRPHLFPRP is lower in “shrunken log2 fold change” value: 0.323 for the first, -0.198 for the second.

Compared with RRIRYRPPRLPRPRPRPANPPRP, RRIRFRPPRLPRPRPRPGRHPRP is higher in “shrunken log2 fold change” value: -0.422 for the first, 0.0867 for the second.

Going from RRIRIRPPRLPRPRPRPKRQPRP to RRIRKRPPRLPRPRPRPVAAPRP, the “shrunken log2 fold change” value rises from 0.174 to 0.721.

First: RRIRVRPPRLPRPRPRPEMCPRP
Second: RRIRCRPPRLPRPRPRPTLAPRP
The “shrunken log2 fold change” value of the first is lower: -0.0885 for the first, 0.645 for the second.

Going from RRIRPRPPRLPRPRPRPRMRPRP to RRIRRRPPRLPRPRPRPQVGPRP, the “shrunken log2 fold change” value falls from 0.92 to 0.149.

Compared with RRIRLRPPRLPRPRPRPLQGPRP, RRIRRRPPRLPRPRPRPPYMPRP is higher in “shrunken log2 fold change” value: -0.0384 for the first, 0.315 for the second.

RRIRIRPPRLPRPRPRPETEPRP and RRIRDRPPRLPRPRPRPPHVPRP are within 0.2 log units of each other in “shrunken log2 fold change” value: 0.0848 for the first, 0.0772 for the second.

RRIRSRPPRLPRPRPRPSQGPRP and RRIRCRPPRLPRPRPRPEHLPRP are within 0.2 log units of each other in “shrunken log2 fold change” value: -0.252 for the first, -0.0545 for the second.

First: RRIRMRPPRLPRPRPRPEGAPRP
Second: RRIRCRPPRLPRPRPRPFQMPRP
The “shrunken log2 fold change” value of the first is higher: 3.32 for the first, -0.423 for the second.

Compared with RRIRWRPPRLPRPRPRPWCEPRP, RRIRARPPRLPRPRPRPEPQPRP is higher in “shrunken log2 fold change” value: -0.372 for the first, 0.862 for the second.

Compared with RRIRPRPPRLPRPRPRPNRPPRP, RRIRWRPPRLPRPRPRPLRPPRP is higher in “shrunken log2 fold change” value: 0.274 for the first, 0.923 for the second.

RRIRERPPRLPRPRPRPDTSPRP and RRIRFRPPRLPRPRPRPKCHPRP are within 0.2 log units of each other in “shrunken log2 fold change” value: -0.417 for the first, -0.42 for the second.

Compared with RRIRSRPPRLPRPRPRPKESPRP, RRIRSRPPRLPRPRPRPANHPRP is lower in “shrunken log2 fold change” value: 0.284 for the first, -0.606 for the second.

Compared with RRIRARPPRLPRPRPRPVPMPRP, RRIRERPPRLPRPRPRPHLYPRP is lower in “shrunken log2 fold change” value: 0.404 for the first, -0.858 for the second.

For RRIRYRPPRLPRPRPRPVQQPRP, the “shrunken log2 fold change” value was -0.00101.
